Laboratory results from patent US20140186294A1, “PHAGOCYTIC ACTIVITY AS A MARKER OF SYNUCLEINOPATHIC DISEASE” (ELAN PHARMACEUTICALS, INC., priority 2010, published 2014).
Entries after “also recorded” stand apart in the source; their conditions may differ.

Experiments:
[1] = test system: synuclein overexpressing microglia; experiment: Bead phagocytosis (phagocytic index) of IL-4 treated microglia from synuclein genomic lines 3, 26, 422; assay type: cell-based, mouse; conditions: IL-4 24 hours, then beads 90 minutes
Method: FIG. 13: Wild type or synuclein overexpressing microglia isolated from line 3, 26, or 422 littermate pups cells were treated for 24 hours with IL-4 and the fed beads for 90 minutes and phagocytic index determined.
To investigate the role of endogenous synuclein on microglia function, we utilized a transgenic mouse model in which wild type or the E46K mutated form of human synuclein was overexpressed from a human bacterial artificial chromosome (bac). The bac construct contained the synuclein promoter and upstream sequences (45 kbp), as well as downstream 3′ sequences ([…]). Three animal lines of interest were identified; line 422 expresses wild type synuclein and two additional lines, line 26 and line 3, express the mutant E46K form. Altered microglia function associated with over expression of human synuclein was assessed in cells isolated from line 26 P1-P3 pups due in part to the high synuclein expression observed in this line. […] Significant overexpression of human synuclein in the murine microglia allowed us to assess the consequence of elevated synuclein levels on microglia function. […] Although the requirement for receptor engagement differs, both targets require activation of intracellular signaling, actin rearrangement, and mobilization of membrane to the phagocytic cup. […]

synuclein mRNA [2] = experiment: Synuclein transcript levels in IL-4 treated human microglia (microarray, qPCR); assay type: cell-based; conditions: IL-4 24 hours; microglia from three human donors
Method: (§1) FIG. 12: Microarray analysis of microglia isolated from three human donors were stimulated with IL-4 for 24 hours and microarray experiment performed and results were confirmed by qPCR. qPCR was also performed on microglia isolated from IL-4 treated line 26/synuclein null pups.
(§2) Human microglia were treated with IL-4 and synuclein transcript levels were measured by microarray and qPCR. Following IL-4 treatment synuclein levels were decreased by 50% in the three donors tested (FIG. 12). […] Microglia from synuclein genomic mice were treated with IL-4 for 24 hours, and while synuclein mRNA levels were decreased, protein levels were unaffected. Synuclein is turned over slowly, therefore 24 hours maybe too soon to see affects. To assess this microglia were stimulated with IL-4 for 48 hr at which time a 50% reduction in synuclein protein levels was observed. […] This may point to a direct effect of IL-4 signaling on the synuclein promoter.

H4 neuronal cells = experiment: Phagocytic activity screening assay, H4 neuronal cells; assay type: cell-based, human; conditions: H4 neuronal cells (lack an IL-4 receptor)
Source text: The screening and diagnostic assays employ cells with phagocytic activity, sometimes referred to as phagocytic cells. The cells can be human, or other mammalian, particular rodent or mouse. The cells can be obtained from a subject with synucleinopathic disease (usually a human) or a transgenic animal model of disease (e.g., a mouse). The cells can also be a cell line transformed to express an alpha synuclein gene. The cells include microglial cells or peripheral macrophages or polymorphonuclear cells or other phagocytic cells. Microglia can be obtained by biopsy or differentiating or trans-differentiation of embryonic stems cells, bone marrow, induced pluripotent or other stem or pluripotent cell sources from a subject or transgenic animal model. Such phagocytic cells have higher intracellular levels of alpha synuclein that control cells from an undiseased individual. […]
The components of a screening assay include cells with phagocytic activity, a test agent being screened and an entity that can be phagocytosed. […] Methods for detection of phagocytosis can include any fluorescent based platform (e.g., flow cytometry, microscopy, array scan, or a Tr-fret, fluorescent plate reader) enzymatic, or colorimetric readout. […]

synuclein protein = experiment: Synuclein protein levels in IL-4 treated microglia from synuclein genomic mice; assay type: cell-based, mouse
Method: as §2

peripheral macrophages = experiment: Phagocytic activity screening assay, peripheral macrophages; assay type: cell-based
Method: (§3) The components of a screening assay include cells with phagocytic activity, a test agent being screened and an entity that can be phagocytosed. Such an entity can be inert particles, such as latex beads, preferably of size 4-10 microns. The entity can also be apoptotic cells, such as Jurkat cells). Cells and inert entities are phagocytosed by different mechanisms, the former being receptor dependent. Usually the cells are contacted with the test agent first and incubated for a period (e.g., 1-48 hr) before adding the entity to be phagocytosis. Phagocytosis can be followed by light microscopy or flow cytometry among other methods detecting uptake of the entity being phagocytosed into the phagocytic cell. Methods for detection of phagocytosis can include any fluorescent based platform (e.g., flow cytometry, microscopy, array scan, or a Tr-fret, fluorescent plate reader) enzymatic, or colorimetric readout.
(§4) The screening assay can be performed on different types of phagocytic cells in parallel or sequentially. Some agents stimulate phagocytic activity in all or multiple cell types. Other agents may stimulate phagocytic activity in some cells type but not all.

synuclein mRNA [3] = experiment: Synuclein mRNA (qPCR) in IL-4 treated line 26/synuclein null microglia; assay type: cell-based, mouse
Method: as §1, §2

SNARE complex = SNARE complex components in lysates of IL-4 treated microglia; assay type: cell-based, mouse; conditions: IL-4 24 hr; wild type and synuclein OE cells
Method: To determine if IL-4 worked in part by altering SNARE or vesicle movement microglia from synuclein genomic mice were treated with IL-4 for 24 hr and lysates were probed for components of the SNARE complex. […] After addition of beads we saw induction of SNARE complexes and these were enhanced following IL-4 treatment.

microglial cells = experiment: Phagocytic activity screening assay, microglial cells; assay type: cell-based
Method: as §3, §4

B1: IL-4: interleukin IL-4 (Swiss Prot P05112), cytokine used to treat microglia (protein, UniProt P05112 25-153, looked up)
Interleukin-4: HKCDITLQEIIKTLNSLTEQKTLCTELTVTDIFAASKNTTEKETFCRAATVLRQFYSHHEKDTRCLGATAQQFHRHKQLIRFLKRLDRNLWGLAGLNSCPVKEANQSTLENFLERLKTIMREKYSKCSS
[1]
  phagocytosis (phagocytic index): rescue the phagocytic defect
[1]; listed as 11-4
  phagocytosis (phagocytic index): restored phagocytosis
Synuclein mRNA [2]
  reduction in synuclein mRNA levels: 50%
H4 neuronal cells
  stimulating phagocytic activity: not in H4 neuronal cells
Synuclein protein; IL-4 for 24 hours
  synuclein protein levels: unaffected; also recorded: did not decrease synuclein protein
Synuclein protein; IL-4 for 48 hr
  reduction in synuclein protein levels: 50%
Peripheral macrophages
  stimulating phagocytic activity: effective
Synuclein mRNA [3]; IL-4 treated line 26/synuclein null pup microglia, qPCR
  reduction in synuclein mRNA levels: 50%
Synuclein mRNA [3]; line 26/synuclein null genomic microglia, IL-4
  synuclein mRNA levels: reduced synuclein mRNA levels
SNARE complex
  SNARE complex components in lysates: increased monomer SNAP23 Syntaxin4, and SNAP23 snare complex
Microglial cells
  stimulating phagocytic activity: effective
